What all share (test): HPLC of reaction products, Hanes-Woolf plot
What all share (details): 50 mM Tris-HCl pH 8.0, 37°C, 33 nM enzyme

In data set [1] the test system is T1, O=C(O[C@@H]1Cc2c(O)cc(O)cc2O[C@H]1c1ccc(O)c(O)c1)c1cc(O)c(O)c(O)c1.
T1 construct: full ORF (1413 bp, 470 residues, 51,193 Da), C-terminal His tag, fused to YbdK signal peptide in pBE-S, expressed in Bacillus subtilis RIK 1285, purified from cells
It counts as biochemical, Lactiplantibacillus pentosus. From the text:
(§1) HPLC of reaction products, Hanes-Woolf plot on TanLpe

Data set [2] deals with T2, O=C(O[C@@H]1Cc2c(O)cc(O)cc2O[C@H]1c1cc(O)c(O)c(O)c1)c1cc(O)c(O)c(O)c1.
T2 construct: full ORF (1413 bp, 470 residues, 51,193 Da), C-terminal His tag, fused to YbdK signal peptide in pBE-S, expressed in Bacillus subtilis RIK 1285, purified from cells
Type of data set: biochemical, Lactiplantibacillus pentosus.
Excerpt: as §1

Data set [3] deals with T3, O=C(O[C@@H]1Cc2c(O)cc(O)cc2O[C@@H]1c1cc(O)c(O)c(O)c1)c1cc(O)c(O)c(O)c1.
T3 construct: full ORF (1413 bp, 470 residues, 51,193 Da), C-terminal His tag, fused to YbdK signal peptide in pBE-S, expressed in Bacillus subtilis RIK 1285, purified from cells
Type of data set: biochemical, Lactiplantibacillus pentosus.
Excerpt: as §1

Data set [4] relates to T4, COC(=O)c1cc(O)c(O)c(O)c1.
T4 construct: full ORF (1413 bp, 470 residues, 51,193 Da), C-terminal His tag, fused to YbdK signal peptide in pBE-S, expressed in Bacillus subtilis RIK 1285, purified from cells
It counts as biochemical, Lactiplantibacillus pentosus.
Excerpt: as §1

Data set [5] has as its system T5, COc1cc(C(=O)O[C@@H]2Cc3c(O)cc(O)cc3O[C@@H]2c2cc(O)c(O)c(O)c2)cc(O)c1O.
T5 construct: full ORF (1413 bp, 470 residues, 51,193 Da), C-terminal His tag, fused to YbdK signal peptide in pBE-S, expressed in Bacillus subtilis RIK 1285, purified from cells
It counts as biochemical, Lactiplantibacillus pentosus.
Excerpt: as §1

Data set [6] relates to T6, O=C(O[C@@H]1Cc2c(O)cc(O)cc2O[C@@H]1c1ccc(O)c(O)c1)c1cc(O)c(O)c(O)c1.
T6 construct: full ORF (1413 bp, 470 residues, 51,193 Da), C-terminal His tag, fused to YbdK signal peptide in pBE-S, expressed in Bacillus subtilis RIK 1285, purified from cells
It counts as biochemical, Lactiplantibacillus pentosus.
Excerpt: as §1

Data set [7] relates to T7, O=C(O[C@@H]1Cc2c(O)cc(O)cc2O[C@H]1c1cc(O)c(O)c(O)c1)c1cc(O)c(O)c(O)c1.
T7 construct: full ORF (1410 bp, 469 residues, 50,708 Da), C-terminal His tag, fused to YbdK signal peptide in pBE-S, expressed in Bacillus subtilis RIK 1285, purified from cells
It counts as biochemical, Lactiplantibacillus paraplantarum. From the text: (§2) HPLC of reaction products, Hanes-Woolf plot on TanLpa

Data set [8] deals with T8, O=C(O[C@@H]1Cc2c(O)cc(O)cc2O[C@H]1c1ccc(O)c(O)c1)c1cc(O)c(O)c(O)c1.
T8 construct: full ORF (1410 bp, 469 residues, 50,708 Da), C-terminal His tag, fused to YbdK signal peptide in pBE-S, expressed in Bacillus subtilis RIK 1285, purified from cells
It counts as biochemical, Lactiplantibacillus paraplantarum.
Excerpt: as §2

For data set [9], the system named is T9, COc1cc(C(=O)O[C@@H]2Cc3c(O)cc(O)cc3O[C@@H]2c2cc(O)c(O)c(O)c2)cc(O)c1O.
T9 construct: full ORF (1410 bp, 469 residues, 50,708 Da), C-terminal His tag, fused to YbdK signal peptide in pBE-S, expressed in Bacillus subtilis RIK 1285, purified from cells
It counts as biochemical, Lactiplantibacillus paraplantarum.
Excerpt: as §2

Data set [10] deals with T10, COC(=O)c1cc(O)c(O)c(O)c1.
T10 construct: full ORF (1410 bp, 469 residues, 50,708 Da), C-terminal His tag, fused to YbdK signal peptide in pBE-S, expressed in Bacillus subtilis RIK 1285, purified from cells
It counts as biochemical, Lactiplantibacillus paraplantarum.
Excerpt: as §2

In data set [11] the test system is T11, O=C(O[C@@H]1Cc2c(O)cc(O)cc2O[C@@H]1c1ccc(O)c(O)c1)c1cc(O)c(O)c(O)c1.
T11 construct: full ORF (1410 bp, 469 residues, 50,708 Da), C-terminal His tag, fused to YbdK signal peptide in pBE-S, expressed in Bacillus subtilis RIK 1285, purified from cells
It counts as biochemical, Lactiplantibacillus paraplantarum.
Excerpt: as §2

In data set [12] the test system is T12, O=C(O[C@@H]1Cc2c(O)cc(O)cc2O[C@@H]1c1cc(O)c(O)c(O)c1)c1cc(O)c(O)c(O)c1.
T12 construct: full ORF (1410 bp, 469 residues, 50,708 Da), C-terminal His tag, fused to YbdK signal peptide in pBE-S, expressed in Bacillus subtilis RIK 1285, purified from cells
It counts as biochemical, Lactiplantibacillus paraplantarum.
Excerpt: as §2

Substrate in data set [13]: COC(=O)c1cc(O)c(O)c(O)c1
It counts as biochemical, Lactiplantibacillus plantarum. From the text: (§3) HPLC of reaction products, Hanes-Woolf plot on TanLpl

Substrate in data set [14]: O=C(O[C@@H]1Cc2c(O)cc(O)cc2O[C@H]1c1cc(O)c(O)c(O)c1)c1cc(O)c(O)c(O)c1
It counts as biochemical, Lactiplantibacillus plantarum.
Excerpt: as §3

Substrate in data set [15]: COc1cc(C(=O)O[C@@H]2Cc3c(O)cc(O)cc3O[C@@H]2c2cc(O)c(O)c(O)c2)cc(O)c1O
Type of data set: biochemical, Lactiplantibacillus plantarum.
Excerpt: as §3

Substrate in data set [16]: O=C(O[C@@H]1Cc2c(O)cc(O)cc2O[C@@H]1c1cc(O)c(O)c(O)c1)c1cc(O)c(O)c(O)c1
Type of data set: biochemical, Lactiplantibacillus plantarum.
Excerpt: as §3

Substrate in data set [17]: O=C(O[C@@H]1Cc2c(O)cc(O)cc2O[C@H]1c1ccc(O)c(O)c1)c1cc(O)c(O)c(O)c1
Type of data set: biochemical, Lactiplantibacillus plantarum.
Excerpt: as §3

Substrate in data set [18]: O=C(O[C@@H]1Cc2c(O)cc(O)cc2O[C@@H]1c1ccc(O)c(O)c1)c1cc(O)c(O)c(O)c1
Type of data set: biochemical, Lactiplantibacillus plantarum.
Excerpt: as §3

By Km is commonly meant the substrate concentration at which the rate is half of its maximum. One may read the kcat as the number of substrate molecules converted per active site and unit of time at saturation. Usually kcat/Km stands for the turnover number divided by the Michaelis constant. As to TanLpe (Lactiplantibacillus pentosus), the Km was 80 ± 4 µM in [1]; 70 ± 2 µM in data set [2]; 60 ± 20 µM in data set [3]; 870 ± 410 µM in data set [4]; 5 ± 0.9 µM in data set [5]; 50 ± 10 µM in data set [6]. Besides, the catalytic constant (kcat) in [1] was found to be 1.48 ± 0.11 s⁻¹; in [2], 1.12 ± 0.13 s⁻¹; in [3], 0.44 ± 0.02 s⁻¹; in data set [4] it was 15.95 ± 3.13 s⁻¹; in data set [5], 0.06 ± 0.02 s⁻¹; in data set [6], 0.42 ± 0.03 s⁻¹. In addition, the kcat/Km in data set [1] worked out at 19200 ± 2360 M⁻¹ s⁻¹; in data set [2], 14300 ± 1950 M⁻¹ s⁻¹; in data set [3], 7250 ± 2510 M⁻¹ s⁻¹; in [4], 18800 ± 3080 M⁻¹ s⁻¹; in [5], 10600 ± 1330 M⁻¹ s⁻¹; in [6], 8630 ± 1170 M⁻¹ s⁻¹.
For the molecule “TanLpa (Lactiplantibacillus paraplantarum)”, the Michaelis constant (Km) in data set [7] was found to be 60 ± 2 µM; in [8], 50 ± 5 µM; in data set [9], 40 ± 4 µM; in data set [10], 500 ± 60 µM; in data set [11] it was 60 ± 10 µM; in [12], 60 ± 10 µM. In addition, the kcat was found to be 9.2 ± 0.09 s⁻¹ in [7]; 8.1 ± 0.04 s⁻¹ in data set [8]; 0.35 ± 0.07 s⁻¹ in data set [9]; 72.73 ± 3.34 s⁻¹ in [10]; 11.08 ± 0.44 s⁻¹ in data set [11]; 14.29 ± 0.82 s⁻¹ in data set [12]. The catalytic efficiency (kcat/Km) in [7] was found to be 155000 ± 7970 M⁻¹ s⁻¹; in data set [8], 182000 ± 27700 M⁻¹ s⁻¹; in data set [9] it was 9020 ± 2280 M⁻¹ s⁻¹; in data set [10], 145000 ± 10600 M⁻¹ s⁻¹; in data set [11], 195000 ± 21500 M⁻¹ s⁻¹; in data set [12], 261000 ± 46500 M⁻¹ s⁻¹.

B1: TanLpl (Lactiplantibacillus plantarum) (protein)
chain: MSNRLIFDADWLVPEQVQVAGQAIQYYAARNIQYVQHPVAAIQVLNVFVPAAYLHGSSVNGYQRATAPILMPNTVGGYLPGPADDPQRVTWPTNAGTIQQALKRGYVVVAAGIRGRTTVDKSGQRVGQAPAFIVDMKAAIRYVKYNQGRLPGDANRIITNGTSAGGATSALAGASGNSAYFEPALTALGAAPATDDIFAVSAYCPIHNLEHADMAYEWQFNGINDWHRYQPVAGTTKNGRPKFEPVSGQLTVEEQALSLALKAQFSTYLNQLKLTASDGTHLTLNEAGMGSFRDVVRQLLISSAQTAFDQGTDIHKYAGFVVTGNQVTDLDLSAYLKSLTRMKAVPAFDQLDLTSPENNLFGDATAKAKHFTALAQTRSTVTAQLADAELIQAINPLSYLTTTSSQVAKHWRIRHGAADRDTSFAIPIILAIMLENHGYGIDFALPWDIPHSGDYDLGDLFSWIDGLCQ
notes: full ORF (469 residues, ~50 kDa), C-terminal His tag, fused to YbdK signal peptide in pBE-S, expressed in Bacillus subtilis RIK 1285, purified from cells
Consider B1, for which the Michaelis constant (Km) in data set [13] was 370 ± 40 µM; in [14], 30 ± 8 µM; in [15] it was 40 ± 9 µM; in [16] it was 100 ± 10 µM; in data set [17], 50 ± 2 µM; in [18], 30 ± 20 µM. Also, the kcat is 46.02 ± 0.87 s⁻¹ in data set [13]; 0.89 ± 0.044 s⁻¹ in [14]; 0.26 ± 0.04 s⁻¹ in [15]; 1.12 ± 0.03 s⁻¹ in data set [16]; 2.41 ± 0.10 s⁻¹ in data set [17]; 1.49 ± 0.19 s⁻¹ in [18]. Further, the kcat/Km is 125000 ± 15400 M⁻¹ s⁻¹ in [13]; 27200 ± 6280 M⁻¹ s⁻¹ in data set [14]; 6040 ± 570 M⁻¹ s⁻¹ in [15]; 11700 ± 1290 M⁻¹ s⁻¹ in [16]; 53600 ± 4620 M⁻¹ s⁻¹ in [17]; 52200 ± 25600 M⁻¹ s⁻¹ in data set [18].
